Experimental data as given in paper PMC10755749.

Legend:
[1] = test system: MPXV A29 protein (mpox virus); assay: SPR
[2] = test system: MPXV A29 protein;anti-A29 IgG antibody (mpox virus;); assay: single-molecule nanopore, Hill fit; details: 5'-phosphate on aptamer probe, ligated into carrier
[3] = test system: MPXV A29 protein;anti-A29 IgG antibody (mpox virus;); assay: single-molecule nanopore; details: 5'-phosphate on aptamer probe, ligated into carrier
[4] = test system: anti-A29 IgG antibody; assay: single-molecule nanopore; details: 5'-phosphate on aptamer probe, ligated into carrier
[5] = test system: MPXV A29 protein;anti-A29 IgG antibody (mpox virus;); assay: single-molecule nanopore; details: 5'-phosphate on aptamer probe, ligated into carrier; remark: listed apart in the source
[6] = test system: VZV protein;anti-A29 IgG antibody (Varicella zoster virus;); assay: single-molecule nanopore; details: 5'-phosphate on aptamer probe, ligated into carrier
[7] = test system: VACV A27 protein;anti-A29 IgG antibody (Vaccinia virus (Copenhagen?);); assay: single-molecule nanopore; details: 5'-phosphate on aptamer probe, ligated into carrier

Row | Sequence | Kd [1] | further results
1 | AGCACTCCACGCATAACCGGTGGGCGGGGGATGTGGGAAGGTATCGGGGTTGCGTTATGCGTGCTACCGT [HIM-A29-5] | 8.49 nM | –
2 | AGCACTCCACGCATAACGGAGCCGGGGGGCCTTGGGGGATGCAGCTTCGAAGTGTTATGCGTGCTACCGT [HIM-A29-2] | 35.4 nM | –
3 | AGCACTCCACGCATAACGGGGGAGGAGGAGGATGTTATTGGGTGGGCGGGTTTGTTATGCGTGCTACCGT [HIM-A29-4] | 18.6 nM | –
4 | AGCACTCCACGCATAACGGGGGAGGAGGAGGTTCACTTTGGGCGGGTGGGAATGTTATGCGTGCTACCGT [HIM-A29-3] | 12.4 nM | –
5 | AGCACTCCACGCATAACGGGGTCTGGTGGTCTGGCTGGTTTGGGGGTTTGGTCGTTATGCGTGCTACCGT [HIM-A29-1] | 10.8 nM | –
6 | CACGCATAACGTCTTGCGGGGCGGCGGGTTGAGAGGATGTCGGGTGGTTATGCGTG [HIM-A29-6] | < 10 nM | –
7 | CACTGCGCCGGTATCGATATATTTTTTCACGCATAACGTCTTGCGGGGCGGCGGGTTGAGAGGATGTCGGGTGGTTATGCGTG / AAACCACTCAAGTTTGCCAACCAAATGTATATCGATACCGGCGCAGTG [9.1 kbp DNA molecular probe with HIM-A29-6] | – | Kd [2]: 0.0823 nM; binding signal (% events with subpeak) [3]: 3.98; binding signal (% events with subpeak) [4]: 0.01; binding signal (% events with subpeak) [5]: 3.98; binding signal (% events with subpeak) [6]: 0; binding signal (% events with subpeak) [7]: 0.01
